Source: PMC11201810 (Protein Science : A Publication of the Protein Society, 2024)
Residue numbers refer to the chain shown, from its start. Names and notes keep the numbering of the source. Values joined by “and” are separate entries in the source; they are usually repeats but may differ in a detail not shown here. Equal values may be shown once. Read-outs that look alike come from different tables or passages of the source.

Columns and labels:
[1] = biological target: human βB2-crystallin W196F (human) (UniProt P43320); test: AUC
[2] = biological target: human βB2-crystallin W196F (human) (UniProt P43320); test: SEC
SEC [3] = biological target: the molecule itself; test: SEC
AUC = biological target: the molecule itself; test: AUC
SEC [4] = biological target: the molecule itself; test: SEC; remark: listed apart in the source

human βB2-crystallin W196F (from UniProt P43320 1-205) (natural protein)
% dimer [1]: 83.4% | % tetramer [1]: 12.7% | stoichiometry N [2]: 4 and 2

B1: human βB2-crystallin W151F (natural protein, UniProt P43320 1-205, looked up)
chain: MASDHQTQAGKPQSLNPKIIIFEQENFQGHSHELNGPCPNLKETGVEKAGSVLVQAGPWVGYEQANCKGEQFVFEKGEYPRWDSWTSSRRTDSLSSLRPIKVDSQEHKIILYENPNFTGKKMEIIDDDVPSFHAHGYQEKVSSVRVQSGTFVGYQYPGYRGLQYLLEKGDYKDSSDFGAPHPQVQSVRRIRDMQWHQRGAFHPSN
stoichiometry N (SEC [3]): 2 | % dimer (AUC): 92.2 ± 0.5% | % tetramer (AUC): 2.7 ± 0.1%

B2: human βB2-crystallin W85F (natural protein, UniProt P43320 1-205, looked up)
chain: B1 chain with W85F, F151W
stoichiometry N (SEC [3]): 2 and 4 | % dimer (AUC): 79.7 ± 0.6% | % tetramer (AUC): 11.5 ± 0.6%

B3: human βB2-crystallin W82F (natural protein, UniProt P43320 1-205, looked up)
chain: B1 chain with W82F, F151W
stoichiometry N (SEC [3]): 2 and 4 | % dimer (AUC): 75.5 ± 0.3% | % tetramer (AUC): 22.3 ± 0.2%

B4: human βB2-crystallin W59F (natural protein, UniProt P43320 1-205, looked up)
chain: B1 chain with W59F, F151W
stoichiometry N (SEC [3]): 2 | stoichiometry N (SEC [4]): 4 | % dimer (AUC): 48.7 ± 0.3% | % tetramer (AUC): 36.1 ± 0.4%
